Laboratory results taken from patent publication US20210347873A1 (SHANGHAI PHARMAEXPLORER, published 2021).

T1: human APRIL protein (human, UniProt O75888 105-250, limits assumed)
T1 construct: Bought protein; also called recombinant APRIL protein
T1 sequence (looked up): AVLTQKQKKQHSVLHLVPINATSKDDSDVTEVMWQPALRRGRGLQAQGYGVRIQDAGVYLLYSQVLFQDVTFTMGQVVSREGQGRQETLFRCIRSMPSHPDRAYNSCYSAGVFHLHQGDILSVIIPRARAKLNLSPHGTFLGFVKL

T2: cynomolgus BLyS (full length, arginine to histidine at position 132) on CHO-K1 cells (cynomolgus, UniProt Q9Y275 1-285 (human entry))
T2 construct: also called cyno BLyS; CHO-K1 cynoBLyS
T2 chain: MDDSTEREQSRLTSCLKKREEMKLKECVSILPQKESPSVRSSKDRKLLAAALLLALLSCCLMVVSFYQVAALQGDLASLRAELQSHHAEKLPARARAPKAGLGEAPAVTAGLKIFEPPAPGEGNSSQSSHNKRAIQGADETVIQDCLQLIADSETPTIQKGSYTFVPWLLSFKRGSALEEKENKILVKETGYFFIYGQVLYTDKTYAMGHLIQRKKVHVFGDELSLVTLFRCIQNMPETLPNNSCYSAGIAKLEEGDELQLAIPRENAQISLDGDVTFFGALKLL


Tests used:
[1] = target: mouse BLyS protein (mouse, UniProt Q9WU72 69-309); assay: cell-based or functional assay
mouse BLyS protein, sequence (Q9WU72 69-309): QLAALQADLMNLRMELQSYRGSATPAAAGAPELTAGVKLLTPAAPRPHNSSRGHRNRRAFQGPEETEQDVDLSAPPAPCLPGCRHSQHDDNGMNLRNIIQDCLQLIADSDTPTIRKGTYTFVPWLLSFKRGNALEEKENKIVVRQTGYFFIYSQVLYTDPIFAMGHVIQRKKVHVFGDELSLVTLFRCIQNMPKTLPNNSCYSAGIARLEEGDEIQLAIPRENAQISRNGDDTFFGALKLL

[2] = target: T1, human APRIL protein; assay: ELISA, coated APRIL; antibody 13.3 nM
Procedure, shortened: (§1)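 Anti-BLyS antibodies were tested for cross-reactivity on human APRIL coated at 1.0 μg/mL in PBS overnight at 4 °C, blocked with PBS/0.05% Tween20/1% BSA at 37 °C for 2 h. Antibodies were incubated 1 h at 37 °C, then HRP secondary 1 h at 37 °C; TMB 5 min at RT, HCl stop, A450 read.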

[3] = target: T1, human APRIL protein; assay: ELISA, coated APRIL; antibody 66.7 nM
Procedure, shortened: as §1

[4] = target: T1, human APRIL protein; assay: ELISA, coated APRIL; antibody 0.534 nM
Procedure, shortened: as §1

[5] = target: T1, human APRIL protein; assay: ELISA, coated APRIL; antibody 0.00427 nM
Procedure, shortened: as §1

[6] = target: T3, human BLyS (full length, arginine to histidine at position 132) on CHO-K1 cells (human, UniProt Q9Y275 1-285); assay: flow cytometry, CHO-K1 hBLyS cells, antibody 0 nM
T3 construct: also called hBLyS; CHO-K1 hBLyS
T3 sequence (Q9Y275 whole entry R130H): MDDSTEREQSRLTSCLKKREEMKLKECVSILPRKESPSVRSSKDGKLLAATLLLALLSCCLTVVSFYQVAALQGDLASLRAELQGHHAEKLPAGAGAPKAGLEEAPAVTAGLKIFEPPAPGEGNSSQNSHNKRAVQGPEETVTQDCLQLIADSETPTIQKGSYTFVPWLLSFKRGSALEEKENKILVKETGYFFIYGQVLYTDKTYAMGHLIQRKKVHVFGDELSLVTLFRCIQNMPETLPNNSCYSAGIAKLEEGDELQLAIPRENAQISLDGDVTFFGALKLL
Method: (§2) The medium was aspirated completely, and the cells were rinsed once with PBS buffer (purchased from Invitrogen) and then treated with cell dispersion solution (TrypLE™ Express Enzyme, purchased from Life technology) and collected. The detailed steps are as follows: the cells were rinsed once with PBS buffer, after counting, the cells were diluted to 2×10⁶ cells/ml with PBS buffer, blocked with 2% (w/w) fetal bovine serum and incubated on ice for 30 minutes. 200 μL of which per well was aliquoted into a 96-well FACS plate and centrifuged at 2000 rpm at 4° C., then each 100 μL of the lead antibodies obtained from Embodiment 1 and 2 were aliquoted into each well and incubated on ice for 1 hour. […] After centrifuged and rinsed 3 times with FACS buffer, cells were suspended with 200 μL of FACS buffer and the results were detected and analyzed by FACS (FACS Calibur, purchased from BD). It was shown in Tables 12-13 that the lead antibody could bind to human BLyS protein on the cell surface and the lead antibody could cross-react with cynomolgus BLyS. The data in the table is MFI, the average fluorescence intensity of the cell population.

[7] = target: T3, human BLyS (full length, arginine to …); assay: flow cytometry, CHO-K1 hBLyS cells, antibody 0.107 nM
Method: as §2

[8] = target: T3, human BLyS (full length, arginine to …); assay: flow cytometry, CHO-K1 hBLyS cells, antibody 0.534 nM
Method: as §2

[9] = target: T3, human BLyS (full length, arginine to …); assay: flow cytometry, CHO-K1 hBLyS cells, antibody 0.0213 nM
Method: as §2

[10] = target: T2, cynomolgus BLyS (full length, arginine …); assay: flow cytometry, CHO-K1 cynoBLyS cells, antibody 2.67 nM
Method: as §2

[11] = target: T2, cynomolgus BLyS (full length, arginine …); assay: flow cytometry, CHO-K1 cynoBLyS cells, antibody 0.107 nM
Method: as §2

[12] = target: T2, cynomolgus BLyS (full length, arginine …); assay: flow cytometry, CHO-K1 cynoBLyS cells, antibody 0.534 nM
Method: as §2

Molecule	mouse B lymphocyte proliferation (OD450 nm), antibody 0 nM [1]	mouse B lymphocyte proliferation (OD450 nm), antibody 0.000256 nM [1]	mouse B lymphocyte proliferation (OD450 nm), antibody 0.00128 nM [1]	mouse B lymphocyte proliferation (OD450 nm), antibody 0.0064 nM [1]	mouse B lymphocyte proliferation (OD450 nm), antibody 0.032 nM [1]	mouse B lymphocyte proliferation (OD450 nm), antibody 0.16 nM [1]	mouse B lymphocyte proliferation (OD450 nm), antibody 0.8 nM [1]	mouse B lymphocyte proliferation (OD450 nm), antibody 4 nM [1]	mouse B lymphocyte proliferation (OD450 nm), antibody 20 nM [1]	mouse B lymphocyte proliferation (OD450 nm), antibody 100 nM [1]	OD450 nm [2]	OD450 nm [3]	OD450 nm [4]	OD450 nm [5]	MFI [6]	MFI [7]	MFI [8]	MFI [9]	MFI [10]	MFI [11]	further results
hIgG Control (antibody)	2220 OD450 nm	2220	2240 OD450 nm	2460 OD450 nm	2500 OD450 nm	2440 OD450 nm	2510 OD450 nm	2580 OD450 nm	2600 OD450 nm	2670 OD450 nm	0.226	0.477	0.0793	0.0693	–	–	–	–	–	–	–
mIgG Control (antibody)	2190 OD450 nm	2110	2270 OD450 nm	2420 OD450 nm	2320 OD450 nm	2330 OD450 nm	2520 OD450 nm	2440 OD450 nm	2360 OD450 nm	2350 OD450 nm	0.0624	0.102	0.0536	0.0587	–	–	–	–	–	–	–
111D10D6G3 (antibody, V domains shown, Mouse hybridoma monoclonal antibody purified on Protein G) VH: QVQLQQPGAELVKPGASVKMSCKASGYTFTRHWITWVKQRPGQGLEWIGDIFPGSGSINYNEKFKSEATLTVEKSSSTAYMQLSSLTSEDSAVYYCARGDVDVWGTGTTVTVSS VL: DIQMTQSPSSLSASLGERVSLTCRASQEIRGYLSWLQQKPNGTIKRLIYAASTLDSGVPKRFSATRSGSDFSLTISSLESEDFADYYCLQYASYPFTFGSGTKLEIK	2120 OD450 nm	2300 OD450 nm	2150 OD450 nm	2130 OD450 nm	2320 OD450 nm	2290 OD450 nm	2520 OD450 nm	2710 OD450 nm	2540 OD450 nm	2360 OD450 nm	–	–	–	–	32.4 MFI	150 MFI	247 MFI	65.5 MFI	510 MFI	222 MFI	MFI [12]: 478 MFI
111D10D6G3 (antibody, V domains shown, Mouse hybridoma antibody purified on Protein G) VH: QVQLQQPGAELVKPGASVKMSCKASGYTFTRHWITWVKQRPGQGLEWIGDIFPGSGSINYNEKFKSEATLTVEKSSSTAYMQLSSLTSEDSAVYYCARGDVDVWGTGTTVTVSS VL: DIQMTQSPSSLSASLGERVSLTCRASQEIRGYLSWLQQKPNGTIKRLIYAASTLDSGVPKRFSATRSGSDFSLTISSLESEDFADYYCLQYASYPFTFGSGTKLEIK	–	–	–	–	–	–	–	–	–	–	0.0573	0.0681	0.0525	0.0538	–	–	–	–	–	–	–
8E7D9C7F5 (antibody, V domains shown, Mouse hybridoma monoclonal antibody purified on Protein G) VH: QVQLQQSGVELARPGASVKLSCKASGYTFTSYGISWVKQRTGQALEWIGEIYPRSGNTYYNEKFKGKATLTADKSSSTAYMELRSLTSEDSAVYFCARSGPITTLVATDYGMDYWGQGTSVTVSS VL: DIVLTQSPASLAVSLGQRATISCRASKSVSTSSYSYMHWYQQKPGQPPKLLIKFASNLESGVPARFSGSGSGTDFTLNIHPVEEEDAATYYCQHSREFPYTFGGGTKLEIK	2100 OD450 nm	2220 OD450 nm	2240 OD450 nm	2250 OD450 nm	2320 OD450 nm	2350 OD450 nm	2300 OD450 nm	2440 OD450 nm	2350 OD450 nm	2360 OD450 nm	–	–	–	–	152 MFI	282 MFI	504 MFI	122 MFI	1130 MFI	477 MFI	MFI [12]: 1050 MFI
97A3C2H4 (antibody, V domains shown, Mouse hybridoma monoclonal antibody purified on Protein G) VH: EVKLVESGGGLVQPGGSLKLSCAASGFTFSTYTMSWVRQTPEKRLEWVAYISYGGGSTSYPDTVKGRFTISRDNAKNTLYLQMSSLKSEDTAIYYCTRHVTVVENSMDYWGQGTSVTVSS VL: DILLTQSPDILSVSPGERVSFSCRASQSIGTSIHWYQQRTNGSPRLLIKYVSESFSGTPSRFSGSGSGTAFTLTINSVESEDIADYYCQQTHSWPWTFGGGTKLEIK	2160 OD450 nm	2210 OD450 nm	2200 OD450 nm	2250 OD450 nm	2370 OD450 nm	2300 OD450 nm	2410 OD450 nm	2430 OD450 nm	2400 OD450 nm	2320 OD450 nm	–	–	–	–	31.2 MFI	158 MFI	340 MFI	69.8 MFI	956 MFI	243 MFI	MFI [12]: 682 MFI

Continued, in another order:

mouse B lymphocyte proliferation (OD450 nm), antibody 0 nM [1]	mouse B lymphocyte proliferation (OD450 nm), antibody 0.000256 nM [1]	mouse B lymphocyte proliferation (OD450 nm), antibody 0.00128 nM [1]	mouse B lymphocyte proliferation (OD450 nm), antibody 0.0064 nM [1]	mouse B lymphocyte proliferation (OD450 nm), antibody 0.032 nM [1]	mouse B lymphocyte proliferation (OD450 nm), antibody 0.16 nM [1]	mouse B lymphocyte proliferation (OD450 nm), antibody 0.8 nM [1]	mouse B lymphocyte proliferation (OD450 nm), antibody 4 nM [1]	mouse B lymphocyte proliferation (OD450 nm), antibody 20 nM [1]	mouse B lymphocyte proliferation (OD450 nm), antibody 100 nM [1]	OD450 nm [2]	OD450 nm [3]	OD450 nm [4]	OD450 nm [5]	MFI [6]	MFI [7]	MFI [8]	MFI [9]	MFI [10]	MFI [11]	Molecule	further results
–	–	–	–	–	–	–	–	–	–	0.124	0.133	0.0757	0.121	–	–	–	–	–	–	L1D12 (antibody, human IgG1, V domains shown, also called LID12) VH: QVQLVQSGGGLVQPGGSLRLSCAASGFTVSSNYMSWVRQAPGKGLEWVSVIYSGGSTYYADSVKGRFTISRDNSKNTLYLQMNSLRAEDTAVYYCARGFHDILTGYGMDVWGQGTTVTVSS VL: SSELTQDPAVSVALGQTVRITCQGDSLRNYYAGWYQQKPGQAPVLVIYGKNNRPSGIPDRFSGSSSGNTASLTITGTQAEDEADYYCSSRDNSGTHLVEFGGGTKLTVL	–
–	–	–	–	–	–	–	–	–	–	0.107	0.276	0.0741	0.161	–	–	–	–	–	–	L9G7 (antibody, human IgG1, V domains shown) VH: QIQLVQSGAEVKKPGASVKVSCKASGYTFTSYGISWVRQAPGQGLEWMGWISAYNGNTNYAQKLQGRVTMTTDTSTSTAYMELRSLRSDDTAVYYCARTYYDILTGYYYYGMDVWGQGTTVTVSS VL: EIVLTQSPGTLSLSPGERATLSCRTSQSVDTYLAWYQQKPGQAPRLLIYDASNRATGIPARFSGSGSGTDFTLTISSLEPEDFAVYYCQQRSNWPLTFGGGTKVEIK	–
–	–	–	–	–	–	–	–	–	–	0.0848	0.173	0.059	0.0625	–	–	–	–	–	–	97A3C2H4 (antibody, V domains shown, Mouse hybridoma antibody purified on Protein G) VH: EVKLVESGGGLVQPGGSLKLSCAASGFTFSTYTMSWVRQTPEKRLEWVAYISYGGGSTSYPDTVKGRFTISRDNAKNTLYLQMSSLKSEDTAIYYCTRHVTVVENSMDYWGQGTSVTVSS VL: DILLTQSPDILSVSPGERVSFSCRASQSIGTSIHWYQQRTNGSPRLLIKYVSESFSGTPSRFSGSGSGTAFTLTINSVESEDIADYYCQQTHSWPWTFGGGTKLEIK	–
